Data set [1] deals with T1, Helicobacter pylori chemotaxis protein A (CheA), histidine kinase, recombinant (H. pylori (G27 strain), UniProt B5Z859 1-807).
T1 sequence: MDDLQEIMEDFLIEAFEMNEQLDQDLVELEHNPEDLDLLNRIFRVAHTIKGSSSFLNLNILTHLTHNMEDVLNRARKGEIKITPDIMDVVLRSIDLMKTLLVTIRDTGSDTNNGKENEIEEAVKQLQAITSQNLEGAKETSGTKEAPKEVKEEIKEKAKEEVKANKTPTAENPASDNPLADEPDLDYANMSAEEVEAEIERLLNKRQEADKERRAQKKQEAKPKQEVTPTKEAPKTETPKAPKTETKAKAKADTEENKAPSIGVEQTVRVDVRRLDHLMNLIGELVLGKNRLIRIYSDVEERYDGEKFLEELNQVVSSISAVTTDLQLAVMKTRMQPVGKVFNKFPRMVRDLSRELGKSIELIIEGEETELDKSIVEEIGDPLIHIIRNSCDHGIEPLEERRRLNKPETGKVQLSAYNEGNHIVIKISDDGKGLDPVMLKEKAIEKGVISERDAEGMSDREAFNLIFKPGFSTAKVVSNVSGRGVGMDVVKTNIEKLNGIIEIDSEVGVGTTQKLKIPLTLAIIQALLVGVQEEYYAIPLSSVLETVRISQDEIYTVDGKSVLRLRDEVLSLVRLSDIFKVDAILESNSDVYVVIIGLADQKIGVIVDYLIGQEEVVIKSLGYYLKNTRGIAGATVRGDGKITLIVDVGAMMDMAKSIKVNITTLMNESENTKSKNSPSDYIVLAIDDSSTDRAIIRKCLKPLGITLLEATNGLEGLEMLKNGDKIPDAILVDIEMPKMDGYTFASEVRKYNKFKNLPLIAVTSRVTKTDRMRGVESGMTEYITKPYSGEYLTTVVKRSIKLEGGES
The experiment in a line: cell-based or functional assay.

The target of data set [2] is T1, Helicobacter pylori chemotaxis protein …. The experiment in a line: kinase activity titration (radio-ATP labelling of CheA autophosphorylation); CheW titrated against 4 μM CheA, 1 mM ATP; kobs values fit to a binding isotherm; kinetically defined, estimated KD; 50 mM Tris (pH 7.5), 100 mM NaCl, 10 mM MgCl2, 20°C. Particulars: both partners purified.
Data set [3] deals with the molecule itself. The data set can be described thus: AUC; interference; 1, 2 and 3 x 10 μM TlpD and 3 x 28 μM TlpD(-His) in PBS (pH 7), 1 mM TCEP, 20°C, 55,000 rpm; monomer and dimer peaks integrated (SedFit); dimer to monomers.
For data set [4], the target named is T2, CheW-CheA complex (4 μM CheA with 40 μM CheW) (H. pylori (G27 strain) | H. pylori (SS1 …, UniProt B5Z859 1-807; O25152 1-165).
T2 sequence 1: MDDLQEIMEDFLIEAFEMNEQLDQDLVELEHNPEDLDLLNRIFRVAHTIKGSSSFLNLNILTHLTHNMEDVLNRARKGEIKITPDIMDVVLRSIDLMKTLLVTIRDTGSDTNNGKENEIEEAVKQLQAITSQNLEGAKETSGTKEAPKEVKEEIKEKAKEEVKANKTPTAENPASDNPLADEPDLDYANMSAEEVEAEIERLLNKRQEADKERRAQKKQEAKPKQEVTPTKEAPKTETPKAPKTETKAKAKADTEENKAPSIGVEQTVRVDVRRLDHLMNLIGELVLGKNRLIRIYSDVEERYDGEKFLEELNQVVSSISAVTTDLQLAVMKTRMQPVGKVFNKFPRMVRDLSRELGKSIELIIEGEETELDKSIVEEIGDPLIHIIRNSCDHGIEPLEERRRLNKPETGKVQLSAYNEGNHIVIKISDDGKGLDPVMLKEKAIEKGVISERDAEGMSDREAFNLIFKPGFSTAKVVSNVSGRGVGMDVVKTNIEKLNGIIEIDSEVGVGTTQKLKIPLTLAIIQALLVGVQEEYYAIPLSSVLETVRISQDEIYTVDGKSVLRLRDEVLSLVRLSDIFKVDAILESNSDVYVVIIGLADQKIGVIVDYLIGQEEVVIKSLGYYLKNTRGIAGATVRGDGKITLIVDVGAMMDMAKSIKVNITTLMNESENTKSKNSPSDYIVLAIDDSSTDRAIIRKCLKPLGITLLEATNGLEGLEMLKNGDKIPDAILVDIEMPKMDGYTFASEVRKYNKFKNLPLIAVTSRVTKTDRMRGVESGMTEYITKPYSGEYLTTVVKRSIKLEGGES
T2 sequence 2: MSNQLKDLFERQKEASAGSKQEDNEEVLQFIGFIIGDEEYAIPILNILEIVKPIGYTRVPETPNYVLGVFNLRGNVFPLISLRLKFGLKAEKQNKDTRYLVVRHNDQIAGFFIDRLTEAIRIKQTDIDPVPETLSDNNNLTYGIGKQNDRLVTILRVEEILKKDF
The experiment in a line: cell-based or functional assay.

The target in data set [5] is T2, CheW-CheA complex (4 μM CheA with 40 μM …). The data set can be described thus: kinase activity titration (radio-ATP labelling of CheA autophosphorylation); TlpD titrated against 4 μM CheA and 40 μM CheW, 1 mM ATP; kobs values fit to a binding isotherm; CheA-CheW complex approximated as 2 μM; kinetically defined, estimated KD; 50 mM Tris (pH 7.5), 100 mM NaCl, 10 mM MgCl2, 20°C. Particulars: both partners purified.

B1: Helicobacter pylori chemotaxis protein W (CheW), recombinant (natural protein)
chain: MSNQLKDLFERQKEASAGSKQEDNEEVLQFIGFIIGDEEYAIPILNILEIVKPIGYTRVPETPNYVLGVFNLRGNVFPLISLRLKFGLKAEKQNKDTRYLVVRHNDQIAGFFIDRLTEAIRIKQTDIDPVPETLSDNNNLTYGIGKQNDRLVTILRVEEILKKDF
notes: CheW scaffold protein of H. pylori strain SS1, Uniprot A0A1U9ITT8; no limits stated; source: E. coli ArcticExpress DE3, purified (Ni-NTA, gel filtration)
Broadly, the Kd is the constant that tells how readily two partners part at equilibrium. For B1, the “CheA autophosphorylation (radio-ATP labelling), titration of CheW against 4 μM CheA, maximal activation over CheA alone” value in data set [1] came to 2.7 fold. Besides, in data set [2], the Kd was 14.6 µM.

B2: Helicobacter pylori TlpD lacking the N-terminal His tag, TlpD(-His) (receptor)
chain: not shown
notes: TlpD, cytosolic chemoreceptor of H. pylori strain SS1, Uniprot A0A1U9IUC7; no limits stated; Tag cut by TEV protease; source: E. coli ArcticExpress DE3, purified (Ni-NTA, TEV protease, repurified, gel filtration)
Broadly, the stoichiometry N is a count of units in the complex or per binding partner. With B2, in data set [3], the Kd turned out to be 0.0648 µM and the “stoichiometry N” value came to 2.

B3: Helicobacter pylori transducer-like protein D (TlpD), recombinant, with intact N-terminal His tag (receptor)
chain: not shown
notes: TlpD, cytosolic chemoreceptor of H. pylori strain SS1, Uniprot A0A1U9IUC7; Monomer-dimer equilibrium; copies 2 is the dimer form; also called HpTlpD; TlpD(+His); source: E. coli ArcticExpress DE3, purified (Ni-NTA, gel filtration)
Regarding B3, in data set [4], the “CheA autophosphorylation (radio-ATP labelling), titration of TlpD against 4 μM CheA and 40 μM CheW, maximal activation over CheA alone” value was found to be 14.6 fold. Besides, in data set [3], the Kd is 0.189 µM and the “stoichiometry N” value came to 2. Moreover, the Kd in data set [5] is 15.2 µM.
